Source: publication PMC4007455

Columns and labels:
[1] = target: RNA polymerase II in isolated early elongation complexes (human (endogenous in HeLa)) (UniProt P24928)
[2] = target: RNA polymerase II in isolated early elongation complexes (human (endogenous in HeLa)) (UniProt P24928); remark: listed apart in the source

Row | block of TFIIF (0.1 pmol)-dependent runoff by 1 pmol ΔLPDKG mutant, in vitro transcription on isolated EECs, 7-min chase (blocks TFIIF acting on Pol II) [1] [%] | termination region as percent of total counts with TTF2 (0.04 pmol) and 1 pmol ΔLPDKG mutant (72% with TTF2 alone), in vitro transcription on isolated EECs (blocks TTF2 acting on Pol II) (% of the total counts) [1] | amount of Gdown1 CTD titrated onto EECs that completely blocks elongation stimulation by 0.1 pmol TFIIF, in vitro transcription, 7-min chase [2] [pmol] | Substance
1 | 90 | 50 | – | Gdown1 ΔLPDKG deletion mutant (from UniProt P0CAP2-1 1-368) (natural protein)
2 | – | – | 20 | Gdown1 CTD(197–368) (from UniProt P0CAP2-1 197-368) (domain or fragment)
